# Data taken from US20240317834A1, “COMPOSITIONS AND METHODS FOR NEUROLOGICAL DISEASES” (CODA BIOTHERAPEUTICS, INC., priority 2020, published 2024).
# Numbering of substitutions follows the chain as printed. Names may count otherwise.
# B1: CODA945: engineered chimeric LGIC receptor, Q139E in SEQ ID NO: 33 (protein)
# chain: MRCSPGGVWLALAASLLHVSLQGEFQRKLYKELVKNYNPLERPVANDSQPLTVYFSLSLLQIMDVDEKNQVLTTNIWLQMSWTDHYLQWNVSEYPGVKTVRFPDGQIWKPDILLYNSADERFDATFHTNVLVNSSGHCEYLPPGIFKSSCPMDLKNFPMDVQTCKLKFGSWSYGGWSLDLQMQEADISGYIPNGEWDLVGIPGKRSERFYECCKEPYPDVTFTVTMRRRMGYYLIQMYIPSLLIVILSWISFWINMDAAPARVGLGITTVLTMTTQSSGSRASLPKVSYVKAIDIWMAVCLLFVFSALLEYAAVNFVSRQHKELLRFRRKRRHHKSPMLNLFQEDEAGEGRFNFSAYGMGPACLQAKDGISVKGANNSNTTNPPPAPSKSPEEMRKLFIQRAKKIDKISRIGFPMAFLIFNMFYWIIYKIVRREDVHNQ
# modifications: synthetic sequence of chimeric LGIC
# B2: CODA337: engineered chimeric LGIC receptor, L131N in SEQ ID NO: 33 (protein)
# chain: B1 chain with L131N, E139Q
# modifications: synthetic sequence of chimeric LGIC
# Tested on: Lenti-X 293T cells
# Assay: YFP fluorescence quenching anion reporter plate reader assay of engineered receptors stimulated with acetylcholine or a non-native ligand
# Format: cell-based
# Conditions: for percent quench of YFP fluorescence, 30 nM TC-6683: TC-6683 30 nM; for percent quench of YFP fluorescence, 300 nM TC-6683: TC-6683 300 nM; for percent quench of YFP fluorescence, 3 uM TC-6683: TC-6683 3 uM; for percent quench of YFP fluorescence, 30 uM TC-6683: TC-6683 30 uM; for percent quench of YFP fluorescence, 100 uM TC-6683: TC-6683 100 uM; for percent quench of YFP fluorescence, 10 uM ach: acetylcholine 10 uM; for percent quench of YFP fluorescence, 100 uM ach: acetylcholine 100 uM; for percent quench of YFP fluorescence, 1 mM ach: acetylcholine 1 mM; for percent quench of YFP fluorescence, 3 mM ach: acetylcholine 3 mM
# In short: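 Lenti-X 293T cells carrying a YFP anion reporter were transiently transfected with channel DNA and assayed the next day in HEPES-buffered ECS at pH 7.2. Ligand (acetylcholine or non-native ligand) was added in NaI-substituted ECS. Percent quench was the mean of the last 10 s relative to the 15 s pre-addition baseline.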
molecule,measurement,setting,value
B1,YFP fluorescence quenching using CNL001,"1 nM CNL001, first column",6.65%
same,YFP fluorescence quenching using CNL001,"1 nM CNL001, second column",13.512%
same,YFP fluorescence quenching using TC-5619/Bradanicline,3 nM brd,14.15%
same,YFP fluorescence quenching using Varenicline,"3 nM var, first column",8.207
same,YFP fluorescence quenching using Varenicline,"3 nM var, second column",7.835
same,YFP fluorescence quenching using CNL001,"10 nM CNL001, first column",78.678%
same,YFP fluorescence quenching using CNL001,"10 nM CNL001, second column",82.723%
same,YFP fluorescence quenching using TC-5619/Bradanicline,30 nM brd,78.18%
same,YFP fluorescence quenching using Facinicline,30 nM fac,−7.16
same,YFP fluorescence quenching using Varenicline,"30 nM var, first column",9.509
same,YFP fluorescence quenching using Varenicline,"30 nM var, second column",10.204
same,YFP fluorescence quenching using CNL001,"50 nM CNL001, first column",84.91%
same,YFP fluorescence quenching using CNL001,"50 nM CNL001, second column",84.849%
same,YFP fluorescence quenching using ABT-126,50 nM abt,−8.27%
same,YFP fluorescence quenching using CNL001,"100 nM CNL001, first column",85.046%
same,YFP fluorescence quenching using CNL001,"100 nM CNL001, second column",84.642%
same,YFP fluorescence quenching using CNL002,100 nM CNL002,60.5%
same,YFP fluorescence quenching using ABT-126,100 nM abt,4.76%
same,YFP fluorescence quenching using AZD-0328,100 nM azd0328,−5.79%
same,YFP fluorescence quenching using ABT-126,300 nM abt,30.88%
same,YFP fluorescence quenching using AZD-0328,300 nM azd0328,58.47%
same,YFP fluorescence quenching using TC-5619/Bradanicline,300 nM brd,76.8%
same,YFP fluorescence quenching using Facinicline,300 nM fac,71.17
same,YFP fluorescence quenching using Varenicline,"300 nM var, first column",9.818
same,YFP fluorescence quenching using Varenicline,"300 nM var, second column",12.539
same,YFP fluorescence quenching using Varenicline,"500 nM var, first column",16.762
same,YFP fluorescence quenching using Varenicline,"500 nM var, second column",15.21
same,YFP fluorescence quenching using CNL001,"1 uM CNL001, first column",85.493%
same,YFP fluorescence quenching using CNL001,"1 uM CNL001, second column",86.071%
same,YFP fluorescence quenching using CNL002,1 uM CNL002,75.41%
same,YFP fluorescence quenching using ABT-126,1 uM abt,60.66%
same,YFP fluorescence quenching using TC-6987,1 uM tc6987,−0.97
same,YFP fluorescence quenching using Varenicline,"1 uM var, first column",48.292
same,YFP fluorescence quenching using Varenicline,"1 uM var, second column",54.096
same,YFP fluorescence quenching using TC-6987,10 uM tc6987,21.53
same,YFP fluorescence quenching using CNL002,30 uM CNL002,77.46%
same,YFP fluorescence quenching using AZD-0328,30 uM azd0328,66.57%
same,YFP fluorescence quenching using Facinicline,30 uM fac,72.14
same,YFP fluorescence quenching using TC-6987,500 uM tc6987,7.39
same,"percent quench of YFP fluorescence, 30 nM TC-6683",,−26.47%
same,"percent quench of YFP fluorescence, 300 nM TC-6683",,−18.62%
same,"percent quench of YFP fluorescence, 3 uM TC-6683",,−13.39%
same,"percent quench of YFP fluorescence, 30 uM TC-6683",,−16.6%
same,"percent quench of YFP fluorescence, 100 uM TC-6683",,−12.89%
same,"percent quench of YFP fluorescence, 10 uM ach",,−1.25%
same,"percent quench of YFP fluorescence, 100 uM ach",,71.21%
same,"percent quench of YFP fluorescence, 1 mM ach",,71.79%
same,"percent quench of YFP fluorescence, 3 mM ach",,76.04%
B2,YFP fluorescence quenching using CNL001,"1 nM CNL001, first column",76.917%
same,YFP fluorescence quenching using CNL001,"1 nM CNL001, second column",79.554%
same,YFP fluorescence quenching using TC-5619/Bradanicline,3 nM brd,71.02%
same,YFP fluorescence quenching using Varenicline,"3 nM var, first column",3.093
same,YFP fluorescence quenching using Varenicline,"3 nM var, second column",12.327
same,YFP fluorescence quenching using CNL001,"10 nM CNL001, first column",79.479%
same,YFP fluorescence quenching using CNL001,"10 nM CNL001, second column",79.506%
same,YFP fluorescence quenching using TC-5619/Bradanicline,30 nM brd,78.43%
same,YFP fluorescence quenching using Facinicline,30 nM fac,82.25
same,YFP fluorescence quenching using Varenicline,"30 nM var, first column",77.097
same,YFP fluorescence quenching using Varenicline,"30 nM var, second column",77.653
same,YFP fluorescence quenching using CNL001,"50 nM CNL001, first column",81.465%
same,YFP fluorescence quenching using CNL001,"50 nM CNL001, second column",81.297%
same,YFP fluorescence quenching using ABT-126,50 nM abt,−11.64%
same,YFP fluorescence quenching using CNL001,"100 nM CNL001, first column",82.619%
same,YFP fluorescence quenching using CNL001,"100 nM CNL001, second column",81.722%
same,YFP fluorescence quenching using CNL002,100 nM CNL002,76.37%
same,YFP fluorescence quenching using ABT-126,100 nM abt,34.79%
same,YFP fluorescence quenching using AZD-0328,100 nM azd0328,82.1%
same,YFP fluorescence quenching using ABT-126,300 nM abt,60.08%
same,YFP fluorescence quenching using AZD-0328,300 nM azd0328,82.52%
same,YFP fluorescence quenching using TC-5619/Bradanicline,300 nM brd,77.12%
same,YFP fluorescence quenching using Facinicline,300 nM fac,83.59
same,YFP fluorescence quenching using Varenicline,"300 nM var, first column",79.446
same,YFP fluorescence quenching using Varenicline,"300 nM var, second column",79.998
same,YFP fluorescence quenching using Varenicline,"500 nM var, first column",80.691
same,YFP fluorescence quenching using Varenicline,"500 nM var, second column",80.309
same,YFP fluorescence quenching using CNL001,"1 uM CNL001, first column",81.96%
same,YFP fluorescence quenching using CNL001,"1 uM CNL001, second column",81.773%
same,YFP fluorescence quenching using CNL002,1 uM CNL002,80.18%
same,YFP fluorescence quenching using ABT-126,1 uM abt,65.99%
same,YFP fluorescence quenching using TC-6987,1 uM tc6987,79.06
same,YFP fluorescence quenching using Varenicline,"1 uM var, first column",80.258
same,YFP fluorescence quenching using Varenicline,"1 uM var, second column",79.509
same,YFP fluorescence quenching using TC-6987,10 uM tc6987,82.36
same,YFP fluorescence quenching using CNL002,30 uM CNL002,80.93%
same,YFP fluorescence quenching using AZD-0328,30 uM azd0328,82.32%
same,YFP fluorescence quenching using Facinicline,30 uM fac,82.82
same,YFP fluorescence quenching using TC-6987,500 uM tc6987,80.19
same,"percent quench of YFP fluorescence, 30 nM TC-6683",,−11.51%
same,"percent quench of YFP fluorescence, 300 nM TC-6683",,−13.17%
same,"percent quench of YFP fluorescence, 3 uM TC-6683",,−5.46%
same,"percent quench of YFP fluorescence, 30 uM TC-6683",,8.53%
same,"percent quench of YFP fluorescence, 100 uM TC-6683",,14.41%
same,"percent quench of YFP fluorescence, 10 uM ach",,28.32%
same,"percent quench of YFP fluorescence, 100 uM ach",,81.8%
same,"percent quench of YFP fluorescence, 1 mM ach",,71.22%
same,"percent quench of YFP fluorescence, 3 mM ach",,73.7%
